Article PMC11101452, “Structures of the mumps virus polymerase complex via cryo-electron microscopy” (Nature Communications, 2024)

Target: the molecule itself
Test: cryo-EM structure; L–P complex co-expressed in Sf9 and co-purified by the Strep tag of L; 2.0 μM; annealed and unannealed samples combined; 150 mM NaCl, 20 mM Tris-HCl, 6 mM MgCl2, 1 mM TCEP, pH 8.0; two conformations (L_(integral)–P, L_(body)–P)

B1: mumps virus (strain Jeryl-Lynn) phosphoprotein (P) (natural protein)
chain: MDQFIKQDETGDLIETGMNVANHFLSTPIQGTNSLSKASILPGVAPVLIGNPEQKNIQHPTASHQGSKTKGRGSGVRSIIVSPSEAGNGGTQIPEPLFAQTGQGGIVTTVYQDPTIQPTGSYRSVELAKIGKERMINRFVEKPRTSTPVTEFKRGGPGAAAQGQTIQEEGIDGNGASAGSKERSGSLSGATLYAHLSLPQQDSTPANVGIAPQSAISANEIMDLLRGMDARLQHLEQKVDKVLAQGSMVTQIKNELSTVKTTLATIEGMMATVKIMDPGNPTGVPVDELRRSFSDHVTIVSGPGDVSFSSSEKPTLYLDELARPVSKPRPAKQTKSQPVKDLAGQKVMITKMITDCVANPQMKQAFEQRLAKASTEDALNDIKRDIIRSAI
notes: Phosphoprotein (P) of mumps virus strain Jeryl-Lynn, GenBank AAF70389.1; domains NTD, OD, Linker2, CTD (with XD); Four P molecules (P1-P4) stand in the L–P complex; only POD, Linker2 and part of PCTD are resolved; also called MuV P; P1; not shown: Flag, C-terminal, kept
stoichiometry N: 4
